Literature values, collected in patent US20240024386A1, “MICROBIOME MEDIATED INDUCTION OF IMMUNE TOLERANCE AND RESOLUTION OF INFLAMMATION” (INFINANT HEALTH, INC., priority 2020, published 2024).

Test system: COVID-19
Conditions: triple therapy with lopinavir—ritonavir and ribavirin

B1: IFNβ-1b: interferon beta-1b, used in triple therapy with lopinavir—ritonavir and ribavirin (protein, UniProt P01574 22-187, looked up, variant C17S)
Interferon beta: MSYNLLGFLQRSSNFQSQKLLWQLNGRLEYCLKDRMNFDIPEEIKQLQQFQKEDAALTIYEMLQNIFAIFRQDSSSTGWNETIVENLLANVYHQINHLKTVLEEKLEKEDFTRGKLMSSLHLKRYYGRILHYLKAKEYSHCAWTIVRVEILRNFYFINRLTGYLRN
modifications: lacks Met1; non-glycosylated
notes: interferon beta-1b, used in triple therapy with lopinavir—ritonavir and ribavirin
period of viral shedding for COVID-19: shortened
